Assay results taken from article PMC9239094 (mBio, 2022).

Columns and labels:
Experiment in all cases: cryo-EM structure; single-particle cryo-EM of the complex purified in LMNG (Strep-Tactin XT, then SEC); samples at A280 of 1 on Quantifoil Au R1.2/1.3 grids, blotted at 4°C; SthGldLM′ also with fluorinated octyl maltoside in buffer W (100 mM Tris-HCl pH 8.0, 150 mM NaCl, 1 mM EDTA) plus 0.01% LMNG
[1] = target: Capnocytophaga canimorsus GldL (Capnocytophaga canimorsus)
[2] = target: Schleiferia thermophila GldL (Schleiferia thermophila)
[3] = target: Sphingobacterium wenxiniae GldL (Sphingobacterium wenxiniae)
[4] = target: the molecule itself

Row | Molecule | stoichiometry N [4] | also measured
1 | Capnocytophaga canimorsus GldL (natural protein) | – | stoichiometry N [1]: 5
2 | Schleiferia thermophila GldL (natural protein) | – | stoichiometry N [2]: 5
3 | Sphingobacterium wenxiniae GldL (natural protein) | – | stoichiometry N [3]: 5
4 | Porphyromonas gingivalis PorM′ (PorM truncated after the first periplasmic D1 domain, twin-Strep-tagged) (domain or fragment) MAVGSNGNANRQKMINLMYLVFIAMMALNVSSEVLDGFDKVDKSLTSSIDGSDKRNNLVLSELNTAYRTNPEKVKVWYERSLVLQKEADSLCTFIDDLKLAIARESDGKDAKVNDIRRKDNLDASSVVMLNPINGKGSTLRKEVDKFRELVATLMTDKAKLKLIEQALNTESGTKGKSWESSLFENMPTVAAITLLTKLQSDVRYAQGEVLADLVKSVDVGDYRVNS | 2 | –
5 | Schleiferia thermophila GldM′ (GldM truncated after the first periplasmic D1 domain, twin-Strep-tagged) (domain or fragment) MAQGKLSPRQRMINMMYLVLTALLALNISKDILEALTKLNEDLSSTVMTVEKKLAFIYQAFDLAASENPEKAGVWRDKAYEVKKQADELHNYLEGIKNDLIEITGGIDEKTNRPKGLDNREKVANYLLVNEGGKAREIRARLEQFRDNMKQYVDEEAALINMLEALFNTEKKKVGDVMIEWENATFEHFPLAAVIPFITGIQANVRNAEADIISHLQRNIGKTDLKFTDENLYFQGQFGSWSHPQFEKGGGSGGGSGGGSWSHPQFEK | 2 | –
6 | Porphyromonas gingivalis PorL (natural protein) MGHYRRYKNILEMYLASHKGRRLLNIVYSWGAAVVILGALFKLLHLPMGNEMLFVGMITEFLVFFISGFEKPAMEYHWEEVFPELDSKNPMDRREMEQRREYLREKAKEAAAYAERPSSVRLASASLGTQPQEQPKPATPFQSQLTGILPEEQIQRLSEGIDKLAEAGEQLARIGRTAAAMTESYEQMQADQEGLRLNSQSYIQQMESLSRNISGLNTIYEIQLKGISSQIDTIDRINRGLAHIRDMYDNSVIDSSSFRNENERMARQLTQLNEVYARLLQALTTNVGLPGMPGNFGASNPSSSGSSPL | 5 | –
7 | Sphingobacterium wenxiniae GldM′ (GldM truncated after the first periplasmic D1 domain, twin-Strep-tagged) (domain or fragment) MAGKKETPRQRMIGILYLVLLGLVALNVSDSILDAFKNLGNSLNTSTQNTQAGIDNMFLAFRETKLKENPERAQPILQKAEQAQALVQQLTSKVGELTTLLEGEGGGLDEETGDVKYRSSTDISARLMINEGRAKELREVITKTKAELLTLTNNEINLTLEAEDPAPRGGIKKTWEQANFGDGIPLTAAITALEKINADAKNAESAVVKHIFGKMDQAVVNLDQENLYFQGQFGSWSHPQFEKGGGSGGGSGGGSWSHPQFEK | 2 | –
8 | Capnocytophaga canimorsus GldM″ (GldM truncated after the D2 periplasmic domain, twin-Strep-tagged) (domain or fragment) MAGGNSPRQKMINLMYLVFISMLALNMGKEVLSAFGLMNEKLEASNEKANNANINAIQALEQNNAENPDQFAEAFQKSKKVKELSDSFYNYIEGIKGEVMNQVGEDKKDYQVMDKSDYLDQKFFVGDNYKPEGEEFVRQINDYKTQLVELLGGKEGTYGELVGKIDGNFNTNDVVDREGVTRKWLNYNFEGFPYIASVAKLSMMQSDIRATEQEVYAEMLKGQLKSQISMTNYTTLLEQSKGAYYQGESFDGAIVLGRKDASTRPNEVELMLDGRKLSASEFQIEDGKVKLKVGAGNAGEHKITGNLYFDQDGKRIAVPVSQVFSTIPKPENLYFQGQFGSWSHPQFEKGGGSGGGSGGGSWSHPQFEK | 2 | –
